The values below come from paper PMC5261807 (2017).

Non-standard residues stand in square brackets, D forms with d. Primed or numbered codes have the meaning given here. No end group written: not given here. Me2a″ = asymmetric dimethylarginine (Rme2a); Me2s″ = symmetric dimethylarginine (Rme2s); Arg(Me2a) = CN(C)C(=N)NCCC[C@H](N)C(=O)O; Lys(Me3) = C[N+](C)(C)CCCC[C@H](N)C(=O)O; Arg(Me2s) = CN=C(NC)NCCC[C@H](N)C(=O)O; pT = C[C@@H](OP(=O)(O)O)[C@H](N)C(=O)O; Me2a = asymmetric dimethyl (on Arg); Lys(Me2) = CN(C)CCCC[C@H](N)C(=O)O; pS = N[C@@H](COP(=O)(O)O)C(=O)O; Lys(Me) = CNCCCC[C@H](N)C(=O)O; Me3″ = trimethyl lysine (Kme3); Me2 = dimethyl (on Lys)

In test [1] the target is T1, Bdf1 bromodomain 2 (GST-tagged, WT) (Saccharomyces cerevisiae (strain ATCC …, UniProt P35817)).
T1 chain: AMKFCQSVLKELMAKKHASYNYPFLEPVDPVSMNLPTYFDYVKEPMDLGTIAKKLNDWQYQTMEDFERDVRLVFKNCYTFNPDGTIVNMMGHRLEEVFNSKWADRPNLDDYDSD
Kind of test: histone peptide array probed with recombinant GST-bromodomain, signal normalised to myc peptide control.

Test [2] concerns the target T2, Bdf1 bromodomain 1 (GST-tagged, WT) (Saccharomyces cerevisiae (strain ATCC …, UniProt P35817)).
T2 chain: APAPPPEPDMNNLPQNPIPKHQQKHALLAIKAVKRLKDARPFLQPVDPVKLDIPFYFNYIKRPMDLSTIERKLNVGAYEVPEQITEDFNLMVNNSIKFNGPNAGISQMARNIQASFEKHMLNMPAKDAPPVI
The description is as above.

As to ARTKQTARKSTGGKAPRKQ (A R T Kme2 Q T A Rme2a Kme2 S T G G K A P R K Q), the binding score is 0.000885 in test [1] and 0 in test [2].

For the molecule PRKQLATKAAR(Me2a″)K(Me3″)[pS]APATGG, the binding score in test [1] and in test [2] was 0 each time.

In the case of PRKQLATKAA[Arg(Me2s)][Lys(Me2)]SAPATGG, the binding score in test [1] and in test [2] was 0 throughout.

B1: c-myc tag (peptide)
chain: EQKLISEEDLA
modifications: histone peptides carry modifications given inline in the sequence and in columns 4-7 (Kac, Kme1/2/3, Rme2a/s, Cit, pS/pT); N-terminus free or acetylated
As for B1, the binding score in test [1] and in test [2] was 1 each time.

Turning to ARTKQTARKSTGGKAPRKQ (A Rme2a T Kac Q T A Rme2a Kme2 S T G G K A P R K Q), the binding score in test [1] was found to be 0.0105; in test [2], 0.00143.

Consider SGRGKGGKGLGKGGAKRHR (S G Rme2s G K G G Kac G L G K G G A K R H R), for which the figures for the binding score in test [1] and in test [2] were 0.0294 and 0, respectively.

Regarding RKSAPATGGVKKPHRYRPG (R K S A P A T G G V Kme1 K P H R Y R P G) [H3 26-45], the binding score in test [1] is 0.00364; in test [2] it was 0.

For SGRGKGGKGLGKGGAKRHR (pS G R G K G G K G L G K G G A K R H R), the binding score was 0.00305 in test [1] and 0 in test [2].

For the molecule A[Arg(Me2s)]TK(Me)QTARKSTGGKAPRKQ, the binding score in test [1] and in test [2] was 0 throughout.

On to RRKKKRRKKKRKRKKRK (R Rme2s K Kme1 Kac R Rme2a Kme2 K Kme3 R Kme1 Rme2s K Kac R K) [background 02], for which the binding score stood at 0.006 in test [1] and 0.00538 in test [2].

For ARTKQTARKSTGGKAPRKQ (A R T Kme1 Q T A Rme2a Kac S T G G K A P R K Q), the binding score in test [1] was determined as 0.00915; in test [2], 0.0217.

Regarding ARTKQTARKSTGGKAPRKQ (A R T K Q T A R Kme1 pS T G G K A P R K Q), the binding score in test [1] and in test [2] was 0 in each case.

Turning to ARTK(Ac)QTAR(Me2s″)K(Ac)STGGKAPRKQ, the binding score in test [1] was determined as 0.00915; in test [2] it was 0.0672.

For ARTKQTARKSTGGKAPRKQ (A R T K Q T A R Kme3 S pT G G K A P R K Q), the binding score in test [1] and in test [2] was 0 each time.

In the case of ARTKQTARKSTGGKAPRKQ (A Rme2a T Kme3 Q T A Rme2s Kme3 S T G G K A P R K Q), the binding score in test [1] and in test [2] was 0 in each case.

As to ARTKQTA[Arg(Me2a)][Lys(Me)]S[pT]GGKAPRKQ, the binding score in test [1] and in test [2] was 0 each time.

For PRKQLATKAAR[Lys(Me3)]SAPATGG, the binding score in test [1] and in test [2] was 0 throughout.

For A[Arg(Me2a)]T[Lys(Me2)]QTARK(Ac)STGGKAPRKQ, the binding score in test [1] worked out at 0.00108; in test [2] it was 0.

As to [pS]GRGKQGGKARAKAKSRSS, the binding score in test [1] worked out at 0.00502; in test [2] it was 0.

Consider ARTKQTARKSTGGKAPRKQ (A Rme2s T Kme2 Q T A Rme2a Kme3 S T G G K A P R K Q), for which the figures for the binding score in test [1] and in test [2] were 0.00797 and 0, respectively.

On to A[Arg(Me2a)]T[Lys(Me3)]QTAR[Lys(Me2)]STGGKAPRKQ, for which the binding score in test [1] was found to be 0.00443; in test [2], 0.

In the case of ARTK(Ac)QTAR(Me2a)K(Me2)STGGKAPRKQ, the binding score in test [1] was 0.00915; in test [2], 0.00179.

As for ARTKQTA[Arg(Me2s)][Lys(Me)][pS]TGGKAPRKQ, the binding score in test [1] was found to be 0; in test [2], 0.00394.

In the case of ARTKQTARKSTGGKAPRKQ (A Rme2s T Kme3 Q T A Rme2a Kac S T G G K A P R K Q), the binding score in test [1] amounted to 0.00305; in test [2] it was 0.0136.

For the molecule SGRGKQGGK(Ac)ARAKAKSRSS, the figures for the binding score in test [1] and in test [2] were 0.00797 and 0.00717, respectively.

With A[Arg(Me2a)]TK(Ac)QTA[Arg(Me2s)][Lys(Me3)]STGGKAPRKQ, the binding score in test [1] stood at 0.00758; in test [2] it was 0.00681.

For ARTKQTARKSTGGKAPRKQ (A R T Kme2 Q T A Rme2a Kac S T G G K A P R K Q), the binding score in test [1] came to 0.00915; in test [2] it was 0.0228.

On to SGRGKGGKGLGKGGAKRHR (pS G Rme2s G Kac G G Kac G L G K G G A K R H R), for which the results for the binding score in test [1] and in test [2] were 0.299 and 0.126, respectively.

Turning to PDPAK(Ac)SAPAPKKG[pS]K(Ac)KAVT [H2B 1-19], the binding score in test [1] is 0.168; in test [2], 0.

With ARTKQTARKSTGGKAPRKQ (A R T Kac Q T A Rme2s Kme2 S T G G K A P R K Q), the binding score in test [1] was 0.0133; in test [2], 0.00251.

As for ARTKQTARKSTGGKAPRKQ (A Rme2s T Kme2 Q T A R Kme1 S T G G K A P R K Q), the results for the binding score in test [1] and in test [2] were 0.00895 and 0, respectively.

For the molecule ARTKQTARKSTGGKAPRKQ (A R T Kac Q T A Rme2a Kac S T G G K A P R K Q), the values for the binding score in test [1] and in test [2] were 0.0821 and 0.0576, respectively.

Turning to A[Arg(Me2s)]T[Lys(Me2)]QTA[Arg(Me2s)][Lys(Me3)]STGGKAPRKQ, the binding score in test [1] and in test [2] was 0 in each case.

Take A[Arg(Me2s)]TK(Ac)QTA[Arg(Me2a)][Lys(Me)]STGGKAPRKQ: the figures for the binding score in test [1] and in test [2] were 0.00384 and 0.00161, respectively.
